# Results from PMC8937215.
# Biological target: CCR6-NES-eLOV-TEVcs-FLAG-Gal4-V5 receiver construct, expressed in HEK293T cells
substance,measurement,value
"CCL20 sender construct (CCL20-18 aa linker-3xHA-pre-mGRASP), expressed in HEK293T cells (ligand)","TRACC UAS-mCherry reporter by confocal imaging, HEK293T in trans: percent of receiver cells in contact with sender cells with reporter expression above background",80.2%
